In the RNAGym collection of RNA variant scans (doi:10.1093/molbev/msab373):

B1: Azoarcus group I ribozyme (parent)
chain: GUGCCUUGCGCCGGGAAACCACGCAAGGGAUGGUGUCAAAUUCGGCGAAACCUAAGCGCCCGCCCGGGCGUAUGGCAACGCCGAGCCAAGCUUCGGCGCCUGCGCCGAUGAAGGUGUAGAGACUAGACGGCACCCACCUAAGGCAAACGCUAUGGUGAAGGCAUAGUCCAGGGAGUGGCGAAAGUCACACAAACCGG

Variants of: B1
Assay: reverse-splicing fitness (ratio to wild type); higher = more active; in vitro selection; Mg2+ level not given
Procedure, shortened: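 An in vitro group I ribozyme library with randomized positions was T7-transcribed and gel-purified. In triplicate, 10 pmol RNA in EPPS pH 7.5 was reacted with 50 pmoles of a 30-nt RNA substrate for 1 h at 37 °C across several added MgCl2 levels (1–48 mM), then stopped with EDTA. Products were reverse transcribed from a substrate-complementary primer, PCR-amplified and sequenced (HiSeq 4000). Fitness is a variant's read proportion after selection over that before, normalised to wild type.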

Variant	reverse-splicing fitness
GUGCCUUGCGCCGGGAAACCACGCAAGGGAUGGUGUCAAAUUCGGCGAAACCUAAGCGCCCGCCCGGGCGUAUGGCAACGCUGAGCCAAGCUUCGGCGCCUGCGCCGAUGAAGGUGUAGAGACUAGACGGCACCCACCUAAGGCUAACGCUAUGGUGAAGGCAUAGUCAAGGGAGGGGCGAAAGUCACACAAACCGG [C82U A145U C169A U176G]	0.00464
GUGCCUUGCGCCGGGAAACCACGCAAGGGAUGGUGUCAAAUUCGGCGAAACCUAAGCGCCCGCCCGGGCGUAUGGCAACGCUGAGCCAAGCUUCGGCGCCUGCGCCGAUGAAGGUGUAGAGACUAGACGGCACCCACCUAAGGCUAACGCUAUGGUGAAGGCAUAGUCAAGGGAGAGGCGAAAGUCACACAAACCGG [C82U A145U C169A U176A]	0.00693
GUGCCUUGCGCCGGGAAACCACGCAAGGGAUGGUGUCAAAUUCGGCGAAACCUAAGCGCCCGCCCGGGCGUAUGGCAACGCUGAGCCAAGCUUCGGCGCCUGCGCCGAUGAAGGUGUAGAGACUAGACGGCACCCACCUAAGGCUAACGCUAUGGUGAAGGCAUAGUCAAGGGAGCGGCGAAAGUCACACAAACCGG [C82U A145U C169A U176C]	0.00648
GUGCCUUGCGCCGGGAAACCACGCAAGGGAUGGUGUCAAAUUCGGCGAAACCUAAGCGCCCGCCCGGGCGUAUGGCAACGCUGAGCCAAGCUUCGGCGCCUGCGCCGAUGAAGGUGUAGAGACUAGACGGCACCCACCUAAGGCUAACGGUAUGGUGAAGGCAUAGUCCAGGGAGAGGCGAAAGUCACACAAACCGG [C82U A145U C150G U176A]	0.0424
GUGCCUUGCGCCGGGAAACCACGCAAGGGAUGGUGUCAAAUUCGGCGAAACCUAAGCGCCCGCCCGGGCGUAUGGCAACGCUGAGCCAAGCUUCGGCGCCUGCGCCGAUGAAGGUGUAGAGACUAGACGGCACCCACCUAAGGCUAACGGUAUGGUGAAGGCAUAGUCCAGGGAGCGGCGAAAGUCACACAAACCGG [C82U A145U C150G U176C]	0.0567
GUGCCUUGCGCCGGGAAACCACGCAAGGGAUGGUGUCAAAUUCGGCGAAACCUAAGCGCCCGCCCGGGCGUAUGGCAACGCUGAGCCAAGCUUCGGCGCCUGCGCCGAUGAAGGUGUAGAGACUAGACGGCACCCACCUAAGGCUAACGGUAUGGUGAAGGCAUAGUCCAGGGAGGGGCGAAAGUCACACAAACCGG [C82U A145U C150G U176G]	0.0104
GUGCCUUGCGCCGGGAAACCACGCAAGGGAUGGUGUCAAAUUCGGCGAAACCUAAGCGCCCGCCCGGGCGUAUGGCAACGCUGAGCCAAGCUUCGGCGCCUGCGCCGAUGAAGGUGUAGAGACUAGACGGCACCCACCUAAGGCUAACGCUAUGGUGAAGGCAUAGUCAAGGGAGUGGCGAAAGUCACACAAACCGG [C82U A145U C169A]	0.00801
GUGCCUUGCGCCGGGAAACCACGCAAGGGAUGGUGUCAAAUUCGGCGAAACCUAAGCGCCCGCCCGGGCGUAUGGCAACGCUGAGCCAAGCUUCGGCGCCUGCGCCGAUGAAGGUGUAGAGACUAGACGGCACCCACCUAAGGCUAACGCUAUGGUGAAGGCAUAGUCUAGGGAGUGGCGAAAGUCACACAAACCGG [C82U A145U C169U]	0.0139
GUGCCUUGCGCCGGGAAACCACGCAAGGGAUGGUGUCAAAUUCGGCGAAACCUAAGCGCCCGCCCGGGCGUAUGGCAACGCUGAGCCAAGCUUCGGCGCCUGCGCCGAUGAAGGUGUAGAGACUAGACGGCACCCACCUAAGGCUAACGCUAUGGUGAAGGCAUAGUCGAGGGAGUGGCGAAAGUCACACAAACCGG [C82U A145U C169G]	0.00906
GUGCCUUGCGCCGGGAAACCACGCAAGGGAUGGUGUCAAAUUCGGCGAAACCUAAGCGCCCGCCCGGGCGUAUGGCAACGCUGAGCCAAGCUUCGGCGCCUGCGCCGAUGAAGGUGUAGAGACUAGACGGCACCCACCUAAGGCUAACGUUAUGGUGAAGGCAUAGUCCAGGGAGUGGCGAAAGUCACACAAACCGG [C82U A145U C150U]	0.438
GUGCCUUGCGCCGGGAAACCACGCAAGGGAUGGUGUCAAAUUCGGCGAAACCUAAGCGCCCGCCCGGGCGUAUGGCAACGCUGAGCCAAGCUUCGGCGCCUGCGCCGAUGAAGGUGUAGAGACUAGACGGCACCCACCUAAGGCUAACGUUAUGGUGAAGGCAUAGUCAAGGGAGAGGCGAAAGUCACACAAACCGG [C82U A145U C150U C169A U176A]	0.0115
GUGCCUUGCGCCGGGAAACCACGCAAGGGAUGGUGUCAAAUUCGGCGAAACCUAAGCGCCCGCCCGGGCGUAUGGCAACGCUGAGCCAAGCUUCGGCGCCUGCGCCGAUGAAGGUGUAGAGACUAGACGGCACCCACCUAAGGCUAACGUUAUGGUGAAGGCAUAGUCAAGGGAGCGGCGAAAGUCACACAAACCGG [C82U A145U C150U C169A U176C]	0.00789
GUGCCUUGCGCCGGGAAACCACGCAAGGGAUGGUGUCAAAUUCGGCGAAACCUAAGCGCCCGCCCGGGCGUAUGGCAACGCUGAGCCAAGCUUCGGCGCCUGCGCCGAUGAAGGUGUAGAGACUAGACGGCACCCACCUAAGGCUAACGUUAUGGUGAAGGCAUAGUCAAGGGAGGGGCGAAAGUCACACAAACCGG [C82U A145U C150U C169A U176G]	0.0048
GUGCCUUGCGCCGGGAAACCACGCAAGGGAUGGUGUCAAAUUCGGCGAAACCUAAGCGCCCGCCCGGGCGUAUGGCAACGCUGAGCCAAGCUUCGGCGCCUGCGCCGAUGAAGGUGUAGAGACUAGACGGCACCCACCUAAGGCUAACGGUAUGGUGAAGGCAUAGUCUAGGGAGGGGCGAAAGUCACACAAACCGG [C82U A145U C150G C169U U176G]	0.00514
GUGCCUUGCGCCGGGAAACCACGCAAGGGAUGGUGUCAAAUUCGGCGAAACCUAAGCGCCCGCCCGGGCGUAUGGCAACGCUGAGCCAAGCUUCGGCGCCUGCGCCGAUGAAGGUGUAGAGACUAGACGGCACCCACCUAAGGCUAACGUUAUGGUGAAGGCAUAGUCCAGGGAGGGGCGAAAGUCACACAAACCGG [C82U A145U C150U U176G]	0.0898
GUGCCUUGCGCCGGGAAACCACGCAAGGGAUGGUGUCAAAUUCGGCGAAACCUAAGCGCCCGCCCGGGCGUAUGGCAACGCUGAGCCAAGCUUCGGCGCCUGCGCCGAUGAAGGUGUAGAGACUAGACGGCACCCACCUAAGGCUAACGUUAUGGUGAAGGCAUAGUCCAGGGAGAGGCGAAAGUCACACAAACCGG [C82U A145U C150U U176A]	0.274
GUGCCUUGCGCCGGGAAACCACGCAAGGGAUGGUGUCAAAUUCGGCGAAACCUAAGCGCCCGCCCGGGCGUAUGGCAACGCUGAGCCAAGCUUCGGCGCCUGCGCCGAUGAAGGUGUAGAGACUAGACGGCACCCACCUAAGGCUAACGUUAUGGUGAAGGCAUAGUCCAGGGAGCGGCGAAAGUCACACAAACCGG [C82U A145U C150U U176C]	0.346
GUGCCUUGCGCCGGGAAACCACGCAAGGGAUGGUGUCAAAUUCGGCGAAACCUAAGCGCCCGCCCGGGCGUAUGGCAACGCUGAGCCAAGCUUCGGCGCCUGCGCCGAUGAAGGUGUAGAGACUAGACGGCACCCACCUAAGGCUAACGCUAUGGUGAAGGCAUAGUCUAGGGAGAGGCGAAAGUCACACAAACCGG [C82U A145U C169U U176A]	0.0111
GUGCCUUGCGCCGGGAAACCACGCAAGGGAUGGUGUCAAAUUCGGCGAAACCUAAGCGCCCGCCCGGGCGUAUGGCAACGCUGAGCCAAGCUUCGGCGCCUGCGCCGAUGAAGGUGUAGAGACUAGACGGCACCCACCUAAGGCUAACGUUAUGGUGAAGGCAUAGUCUAGGGAGAGGCGAAAGUCACACAAACCGG [C82U A145U C150U C169U U176A]	0.0133
GUGCCUUGCGCCGGGAAACCACGCAAGGGAUGGUGUCAAAUUCGGCGAAACCUAAGCGCCCGCCCGGGCGUAUGGCAACGCUGAGCCAAGCUUCGGCGCCUGCGCCGAUGAAGGUGUAGAGACUAGACGGCACCCACCUAAGGCUAACGUUAUGGUGAAGGCAUAGUCUAGGGAGCGGCGAAAGUCACACAAACCGG [C82U A145U C150U C169U U176C]	0.0115
GUGCCUUGCGCCGGGAAACCACGCAAGGGAUGGUGUCAAAUUCGGCGAAACCUAAGCGCCCGCCCGGGCGUAUGGCAACGCUGAGCCAAGCUUCGGCGCCUGCGCCGAUGAAGGUGUAGAGACUAGACGGCACCCACCUAAGGCUAACGUUAUGGUGAAGGCAUAGUCUAGGGAGGGGCGAAAGUCACACAAACCGG [C82U A145U C150U C169U U176G]	0.00433
GUGCCUUGCGCCGGGAAACCACGCAAGGGAUGGUGUCAAAUUCGGCGAAACCUAAGCGCCCGCCCGGGCGUAUGGCAACGCUGAGCCAAGCUUCGGCGCCUGCGCCGAUGAAGGUGUAGAGACUAGACGGCACCCACCUAAGGCUAACGUUAUGGUGAAGGCAUAGUCUAGGGAGUGGCGAAAGUCACACAAACCGG [C82U A145U C150U C169U]	0.0118
GUGCCUUGCGCCGGGAAACCACGCAAGGGAUGGUGUCAAAUUCGGCGAAACCUAAGCGCCCGCCCGGGCGUAUGGCAACGCUGAGCCAAGCUUCGGCGCCUGCGCCGAUGAAGGUGUAGAGACUAGACGGCACCCACCUAAGGCUAACGUUAUGGUGAAGGCAUAGUCGAGGGAGUGGCGAAAGUCACACAAACCGG [C82U A145U C150U C169G]	0.00951
GUGCCUUGCGCCGGGAAACCACGCAAGGGAUGGUGUCAAAUUCGGCGAAACCUAAGCGCCCGCCCGGGCGUAUGGCAACGCUGAGCCAAGCUUCGGCGCCUGCGCCGAUGAAGGUGUAGAGACUAGACGGCACCCACCUAAGGCUAACGUUAUGGUGAAGGCAUAGUCAAGGGAGUGGCGAAAGUCACACAAACCGG [C82U A145U C150U C169A]	0.00939
GUGCCUUGCGCCGGGAAACCACGCAAGGGAUGGUGUCAAAUUCGGCGAAACCUAAGCGCCCGCCCGGGCGUAUGGCAACGCUGAGCCAAGCUUCGGCGCCUGCGCCGAUGAAGGUGUAGAGACUAGACGGCACCCACCUAAGGCUAACGUUAUGGUGAAGGCAUAGUCGAGGGAGCGGCGAAAGUCACACAAACCGG [C82U A145U C150U C169G U176C]	0.0107
GUGCCUUGCGCCGGGAAACCACGCAAGGGAUGGUGUCAAAUUCGGCGAAACCUAAGCGCCCGCCCGGGCGUAUGGCAACGCUGAGCCAAGCUUCGGCGCCUGCGCCGAUGAAGGUGUAGAGACUAGACGGCACCCACCUAAGGCUAACGUUAUGGUGAAGGCAUAGUCGAGGGAGAGGCGAAAGUCACACAAACCGG [C82U A145U C150U C169G U176A]	0.00933
GUGCCUUGCGCCGGGAAACCACGCAAGGGAUGGUGUCAAAUUCGGCGAAACCUAAGCGCCCGCCCGGGCGUAUGGCAACGCUGAGCCAAGCUUCGGCGCCUGCGCCGAUGAAGGUGUAGAGACUAGACGGCACCCACCUAAGGCUAACGUUAUGGUGAAGGCAUAGUCGAGGGAGGGGCGAAAGUCACACAAACCGG [C82U A145U C150U C169G U176G]	0.00498
GUGCCUUGCGCCGGGAAACCACGCAAGGGAUGGUGUCAAAUUCGGCGAAACCUAAGCGCCCGCCCGGGCGUAUGGCAACGCUGAGCCAAGCUUCGGCGCCUGCGCCGAUGAAGGUGUAGAGACUAGACGGCACCCACCUAAGGCUAACGCUAUGGUGAAGGCAUAGUCGAGGGAGAGGCGAAAGUCACACAAACCGG [C82U A145U C169G U176A]	0.00811
GUGCCUUGCGCCGGGAAACCACGCAAGGGAUGGUGUCAAAUUCGGCGAAACCUAAGCGCCCGCCCGGGCGUAUGGCAACGCUGAGCCAAGCUUCGGCGCCUGCGCCGAUGAAGGUGUAGAGACUAGACGGCACCCACCUAAGGCUAACGCUAUGGUGAAGGCAUAGUCGAGGGAGCGGCGAAAGUCACACAAACCGG [C82U A145U C169G U176C]	0.00956
GUGCCUUGCGCCGGGAAACCACGCAAGGGAUGGUGUCAAAUUCGGCGAAACCUAAGCGCCCGCCCGGGCGUAUGGCAACGCUGAGCCAAGCUUCGGCGCCUGCGCCGAUGAAGGUGUAGAGACUAGACGGCACCCACCUAAGGCUAACGCUAUGGUGAAGGCAUAGUCGAGGGAGGGGCGAAAGUCACACAAACCGG [C82U A145U C169G U176G]	0.00447
